Self-cleavage data for 167 variants are collected here from the RNAGym collection of RNA variant scans (doi:10.7554/elife.80360).

The chains are these.
B1: Hammerhead Ribozyme (parent)
chain: ACCGGAUGUGCUUUCCGGUCUGAUGAGUCCGUGAGGACGAAACAG

In this data set the parent is B1. Nature of the data set: self-cleavage, relative activity (ratio to wild type); higher = more cleavage; co-transcriptional.
Consider G25U G27A, for which the self-cleavage amounted to 0.34. With U24G U32G the figure was 0.405; with U24G U32A, 1.08; with U24G U32C, 0.858. A26C U28G: the self-cleavage was 0.46. In the case of A26C U28A, the self-cleavage worked out at 0.572. With A26C U28C the figure was 0.524; with A26G U32A, 0.373; with A26G U32C, 0.328.

Take G25U C43A: the self-cleavage came to 0.359. With G25U C43G the figure was 0.357. With G25U C43U the figure was 0.36; with A26G G39A, 0.368. Turning to A26G G39U, the self-cleavage amounted to 0.343. With A26G G39C the figure was 0.309. With G25A C38U the figure was 0.317. With G25A C38G the figure was 0.33; with G25A C38A, 0.379; with G25U A44C, 0.42. With G25U A44G, the self-cleavage amounted to 0.669. For G25U A44U, the self-cleavage came to 0.373. As for G25A G33C, the self-cleavage came out at 0.438.

G25A G33A: the self-cleavage was determined as 0.379. With G25A G33U the figure was 0.45; with G25U U32G, 0.392; with G25U U32C, 0.268. G25U U32A: the self-cleavage worked out at 0.32.

For the variant G25A A42U, the self-cleavage was 0.333.

With G25A A42C, the self-cleavage stood at 0.262. With G25A A42G the figure was 0.242; with A26G U28A, 0.274.

Consider A26G U28G, for which the self-cleavage was found to be 0.335. With A26G U28C the figure was 0.383; with U24G G33U, 1.02. With U24G G33C the figure was 0.81.

Regarding U24G G33A, the self-cleavage stood at 1.18. Regarding A26C A44G, the self-cleavage worked out at 0.803. Consider A26C A44U, for which the self-cleavage turned out to be 0.344.

Regarding A26C A44C, the self-cleavage came out at 0.406. With G25U C38A the figure was 0.328. With G25U C38G the figure was 0.382. With G25U C38U the figure was 0.37. As for U24G G25A, the self-cleavage is 0.494. With U24G G25C the figure was 0.294.

Consider U24G G25U, for which the self-cleavage amounted to 0.338. With A26C G45A the figure was 0.304.

For A26C G45C, the self-cleavage was 0.398.

Turning to A26C G45U, the self-cleavage turned out to be 0.45. Consider G25C A34G, for which the self-cleavage was 0.332. In the case of G25C A34C, the self-cleavage came to 0.29. As to G25C A34U, the self-cleavage was 0.327. With U24G G31C the figure was 1.19; with U24G G31U, 1.13. With U24G G31A the figure was 0.992; with G25A A37C, 0.301; with G25A A37U, 0.272.

For G25A A37G, the self-cleavage is 0.351.

With A26C G39C, the self-cleavage worked out at 0.45.

Consider A26C G39U, for which the self-cleavage was determined as 0.351. With A26C G39A the figure was 0.366; with A26C G35C, 0.489; with A26C G35A, 0.431. Consider A26C G35U, for which the self-cleavage was 0.334.

Turning to G25U A42U, the self-cleavage was 0.349.

Turning to G25U A42G, the self-cleavage came out at 0.246. With G25U A42C the figure was 0.29; with A26C, 0.7. With A26G, the self-cleavage came out at 0.379.

For the variant A26G A42G, the self-cleavage is 0.225. With A26G A42C the figure was 0.231; with A26G A42U, 0.286. With A26G C38A the figure was 0.325.

With A26G C38U, the self-cleavage was 0.337.

With A26G C38G, the self-cleavage worked out at 0.332. With G25U C29U the figure was 0.273; with G25U C29G, 0.313.

G25U C29A: the self-cleavage is 0.321. With G25U C30U the figure was 0.259. With G25U C30G the figure was 0.291; with G25U C30A, 0.293.

Regarding G25A U28G, the self-cleavage turned out to be 0.313.

For the variant G25A U28A, the self-cleavage amounted to 0.342. Take G25A U28C: the self-cleavage came to 0.355.

In the case of G25A A44C, the self-cleavage was determined as 0.38.

Regarding G25A A44G, the self-cleavage was 0.64.

Take G25A A44U: the self-cleavage worked out at 0.343. With G25A G45C the figure was 0.447; with G25A G45U, 0.45; with G25A G45A, 0.336. G25C U28G: the self-cleavage came to 0.311. With G25C U28C, the self-cleavage came to 0.309. With G25C U28A the figure was 0.338; with G25A A26C, 0.339. With G25A A26G the figure was 0.306. With G25A A26U the figure was 0.341.

G25U U28C: the self-cleavage turned out to be 0.274.

Take G25U U28G: the self-cleavage was 0.314.

As for G25U U28A, the self-cleavage was determined as 0.385. With A26G G31U the figure was 0.516. Consider A26G G31C, for which the self-cleavage was found to be 0.324. Regarding A26G G31A, the self-cleavage was determined as 0.327.

As to A26G A41G, the self-cleavage was determined as 0.284. With A26G A41C the figure was 0.338; with A26G A41U, 0.25; with U24G G39A, 0.327. With U24G G39U the figure was 0.303; with U24G G39C, 0.266. With G25U A34G the figure was 0.261; with G25U A34U, 0.294. On to G25U A34C, for which the self-cleavage worked out at 0.317.

As to G25C G35C, the self-cleavage was found to be 0.355. With G25C G35A the figure was 0.344; with G25C G35U, 0.357; with G25U G31A, 0.338. With G25U G31C the figure was 0.298. With G25U G31U the figure was 0.419; with A26C A37G, 0.671. As for A26C A37U, the self-cleavage stood at 0.506.

Consider A26C A37C, for which the self-cleavage was determined as 0.518.

For the variant G25A G39C, the self-cleavage is 0.305. As for G25A G39U, the self-cleavage worked out at 0.351. With G25A G39A, the self-cleavage is 0.335. With A26G G35U, the self-cleavage turned out to be 0.283. With A26G G35C the figure was 0.35; with A26G G35A, 0.286; with U24G G36A, 0.862. With U24G G36C the figure was 0.452. U24G G36U: the self-cleavage stood at 0.803. U24G G35A: the self-cleavage is 1.03. With U24G G35U the figure was 0.907; with U24G G35C, 0.839. With A26C A41G the figure was 0.307. Consider A26C A41C, for which the self-cleavage was 0.369. For A26C A41U, the self-cleavage came to 0.299. With G25A A34C the figure was 0.278. With G25A A34G the figure was 0.3; with G25A A34U, 0.357; with G25A C29G, 0.347. With G25A C29U the figure was 0.3; with G25A C29A, 0.348. Turning to U24G C38U, the self-cleavage was 0.656. With U24G C38A the figure was 0.742; with U24G C38G, 0.865; with U24G G27C, 0.692.

Turning to U24G G27U, the self-cleavage is 0.438. For the variant U24G G27A, the self-cleavage was 0.504. With G25A A40G the figure was 0.267; with G25A A40U, 0.356; with G25A A40C, 0.368. With A26G A40U the figure was 0.412.

As for A26G A40G, the self-cleavage worked out at 0.328. With A26G A40C the figure was 0.399; with G25C A44G, 0.556; with G25C A44U, 0.263. With G25C A44C the figure was 0.29; with G25U A40C, 0.272. With G25U A40U the figure was 0.417; with G25U A40G, 0.328.

Turning to A26C A40C, the self-cleavage was 0.274. With A26C A40G the figure was 0.285; with A26C A40U, 0.352; with A26C G27C, 0.303.

As for A26C G27A, the self-cleavage turned out to be 0.313. With A26C G27U the figure was 0.397; with A26G A37U, 0.352; with A26G A37G, 0.424.

Regarding A26G A37C, the self-cleavage was found to be 0.252.
